According to the Human Domainome abundance scans (Beltran et al. 2025):
± gives the uncertainty stated by the source.

B1: Far upstream element-binding protein 1, residues 184 to 257; numbered along this chain, Q96AE4 (parent)
chain: GNAVQEIMIPASKAGLVIGKGGETIKQLQERAGVKMVMIQDGPQNTGADKPLRITGDPYKVQQAKEMVLELIRD
B2: Peripheral plasma membrane protein CASK, residues 488 to 569; numbered along this chain, O14936 (parent)
chain: VRLVQFQKNTDEPMGITLKMNELNHCIVARIMHGGMIHRQGTLHVGDEIREINGISVANQTVEQLQKMLREMRGSITFKIVP

Variants of: B1
Test: abundance fitness (aPCA) (normalised: wild type 0, dead -1); higher = more abundant; growth selection in yeast, the domain comes from the species named
Settings: Homo sapiens

Variant | abundance fitness
G1K | -0.044 ± 0.068
G1S | -0.14 ± 0.045
G1M | 0.173 ± 0.068
G1V | 0.038 ± 0.034
G1N | -0.073 ± 0.076
G1C | -0.127 ± 0.053
G1E | -0.061 ± 0.039
G1Y | -0.074 ± 0.067
G1P | -0.212 ± 0.093
G1D | -0.067 ± 0.042
G1A | -0.075 ± 0.039
G1F | -0.027 ± 0.074
G1Q | -0.26 ± 0.13
G1W | -0.502 ± 0.056
G1L | -0.042 ± 0.049
G1R | -0.176 ± 0.038
G1I | 0.193 ± 0.086
N2C | 0.052 ± 0.046
N2A | 0.043 ± 0.033
N2D | -0.224 ± 0.047

Variants of: B2
Test: as above
Settings: Homo sapiens

Variant | abundance fitness
V81F | -0.02 ± 0.038
V81C | -0.036 ± 0.048
V81N | -0.118 ± 0.046
V81Q | -0.001 ± 0.048
V81T | -0.075 ± 0.034
V81M | -0.05 ± 0.038
V81Y | -0.035 ± 0.038
V81A | -0.054 ± 0.034
V81S | -0.044 ± 0.032
V81L | 0.005 ± 0.027
V81P | -0.658 ± 0.08
V81G | -0.106 ± 0.041
V81W | -0.102 ± 0.046
V81I | -0.016 ± 0.039
V81H | -0.073 ± 0.041
V81E | -0.104 ± 0.046
P82S | -0.021 ± 0.035
P82H | -0.151 ± 0.097
P82I | -0.237 ± 0.27
P82N | -0.048 ± 0.084
P82E | -0.047 ± 0.076
P82R | -0.063 ± 0.044
P82G | -0.083 ± 0.067
P82C | -0.072 ± 0.093
P82A | -0.016 ± 0.046

Variant | abundance fitness
P82L | -0.214 ± 0.053
P82T | -0.042 ± 0.049
P82Y | -0.45 ± 0.17
P82V | -0.089 ± 0.056
P82M | -0.204 ± 0.077
P82K | -0.143 ± 0.092
P82W | -0.359 ± 0.091
P82Q | 0.02 ± 0.073
P82D | -0.039 ± 0.07
I80S | -0.424 ± 0.038
I80F | -0.098 ± 0.043
I80D | -1.32 ± 0.44
I80L | -0.113 ± 0.028
I80V | 0.012 ± 0.037
I80H | -0.623 ± 0.073
I80Y | -0.188 ± 0.06
I80R | -0.795 ± 0.081
I80G | -0.408 ± 0.071
I80W | -0.383 ± 0.081
I80C | -0.074 ± 0.052
I80A | -0.468 ± 0.053
I80E | -0.883 ± 0.21
I80K | -0.802 ± 0.15
I80N | -0.836 ± 0.14
I80T | -0.142 ± 0.038

Variant | abundance fitness
I80Q | -0.894 ± 0.13
I80M | -0.169 ± 0.046
I80P | -0.921 ± 0.08
G74V | -0.716 ± 0.036
G74Y | -0.521 ± 0.068
I76W | -0.236 ± 0.032
I76D | -0.818 ± 0.1
I76P | -0.647 ± 0.094
I76K | -1.11 ± 0.13
I76A | -0.308 ± 0.033
I76F | -0.173 ± 0.054
I76G | -0.157 ± 0.023
I76E | -1.04 ± 0.098
I76V | -0.01 ± 0.024
I76C | -0.028 ± 0.039
I76S | -0.448 ± 0.037
I76T | -0.269 ± 0.04
I76N | -0.186 ± 0.051
I76L | -0.112 ± 0.028
I76Y | -0.339 ± 0.074
I76H | -0.544 ± 0.1
I76R | -1.06 ± 0.065
I76M | -0.082 ± 0.049
S75F | -0.037 ± 0.043
S75W | -0.04 ± 0.031

Variant | abundance fitness
S75H | -0.047 ± 0.053
S75K | 0.005 ± 0.033
S75P | -0.005 ± 0.048
S75N | -0.023 ± 0.047
S75I | -0.116 ± 0.046
S75R | -0.011 ± 0.023
S75C | -0.011 ± 0.036
S75M | -0.081 ± 0.041
S75E | -0.029 ± 0.03
S75V | 0.011 ± 0.025
S75Q | 0.019 ± 0.034
S75T | 0.023 ± 0.033
S75A | 0.04 ± 0.027
S75Y | -0.116 ± 0.048
S75L | 0.034 ± 0.03
S75D | 0.033 ± 0.037
S75G | 0.001 ± 0.021
K79E | -0.113 ± 0.066
K79M | -0.133 ± 0.044
K79R | -0.061 ± 0.032
K79H | -0.006 ± 0.039
K79V | -0.213 ± 0.048
K79N | -0.091 ± 0.05
K79S | 0.014 ± 0.033
K79C | -0.053 ± 0.054

Variant | abundance fitness
K79A | 0.071 ± 0.044
K79T | -0.06 ± 0.031
K79D | -0.27 ± 0.071
K79L | -0.09 ± 0.029
K79W | -0.572 ± 0.084
K79G | -0.044 ± 0.045
K79F | -0.457 ± 0.056
K79Y | -0.415 ± 0.054
K79Q | -0.016 ± 0.037
K79P | -1.14 ± 0.16
K79I | -0.406 ± 0.055
T77C | -0.058 ± 0.051
T77F | -0.019 ± 0.059
T77L | -0.064 ± 0.035
T77I | -0.026 ± 0.069
T77V | -0.103 ± 0.046
T77E | -0.034 ± 0.059
T77G | -0.248 ± 0.047
T77Y | -0.112 ± 0.078
T77R | -0.088 ± 0.035
T77D | -0.061 ± 0.065
T77W | -0.014 ± 0.048
T77H | -0.194 ± 0.055
T77N | -0.096 ± 0.065
T77M | -0.309 ± 0.22

Variant | abundance fitness
T77K | -0.041 ± 0.057
T77Q | -0.04 ± 0.039
T77A | -0.028 ± 0.039
T77S | -0.002 ± 0.035
F78Q | -1.22 ± 0.42
F78C | -0.233 ± 0.052
F78P | -0.998 ± 0.12
F78V | -0.198 ± 0.035
F78L | -0.007 ± 0.027
F78R | -0.812 ± 0.071
F78G | -0.886 ± 0.1
F78D | -1.22 ± 0.36
F78W | -0.484 ± 0.074
F78S | -0.839 ± 0.065
F78I | -0.045 ± 0.038
F78M | 0.052 ± 0.1
F78Y | -0.524 ± 0.064
F78T | -0.677 ± 0.066
F78A | -0.473 ± 0.047
F78K | -0.964 ± 0.15
F78N | -0.922 ± 0.16
F78H | -0.95 ± 0.16
